Test results published in patent publication US20060287236A1.

Biological target: transferrin receptor (TfR) (human) (UniProt P02786)
Assay: HeLa cell based 125I-transferrin assay

transferrin receptor (TfR) (human), sequence (P02786 whole entry): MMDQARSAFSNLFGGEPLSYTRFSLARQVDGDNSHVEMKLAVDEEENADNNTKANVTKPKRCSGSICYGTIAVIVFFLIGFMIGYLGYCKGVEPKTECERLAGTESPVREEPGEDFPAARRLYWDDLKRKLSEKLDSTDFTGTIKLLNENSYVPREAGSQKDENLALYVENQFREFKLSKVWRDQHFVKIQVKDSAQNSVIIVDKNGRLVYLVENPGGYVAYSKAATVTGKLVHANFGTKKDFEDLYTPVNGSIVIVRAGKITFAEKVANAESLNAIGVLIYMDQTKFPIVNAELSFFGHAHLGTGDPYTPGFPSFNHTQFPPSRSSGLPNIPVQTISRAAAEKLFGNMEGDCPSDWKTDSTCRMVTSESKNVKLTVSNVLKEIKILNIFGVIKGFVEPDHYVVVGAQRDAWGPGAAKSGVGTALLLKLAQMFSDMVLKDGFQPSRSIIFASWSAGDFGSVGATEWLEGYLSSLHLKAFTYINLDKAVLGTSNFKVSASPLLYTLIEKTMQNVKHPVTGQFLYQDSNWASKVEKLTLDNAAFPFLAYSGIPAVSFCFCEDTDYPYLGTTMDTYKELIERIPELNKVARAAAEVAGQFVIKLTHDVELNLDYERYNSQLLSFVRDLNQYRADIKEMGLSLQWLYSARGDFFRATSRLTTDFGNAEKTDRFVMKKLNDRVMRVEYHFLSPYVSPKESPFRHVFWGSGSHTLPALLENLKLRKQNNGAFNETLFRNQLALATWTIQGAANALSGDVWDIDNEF

- K: 105 nM
Substance: soluble H63D-HFE/β2m heterodimer (from UniProt P61769 21-119)
